From patent US10471162B2, “Collagen targeted imaging probes” (priority 2014, dated 2019) come the findings set out here.

The test system of series [1] is pulmonary fibrosis, low dose bleomycin, vascular leak model. The series is described as follows: in vivo. Details: species or system mouse. Particulars: mouse. As to the method: (§1) Adult male C57Bl/6 mice were administered a single intratracheal dose of low dose bleomycin at 0.1 U/kg (low dose), in a total volume of 50 μl sterile saline. FTY720 was administered intraperitoneally to the mice at 1 mg/kg three times a week. To effect treatment in the low dose bleomycin, vascular leak model, the therapeutic murine antibody 3G9 (alpha-v-beta6 blocking antibody) and 1E6 (matched isotype control antibody) were used. Antibodies were injected into mice intraperitoneally three times week at a concentration of 1 mg/kg. All administrations of FTY720 and antibodies were initiated on day 0, ˜30 minutes before bleomycin challenge and continued throughout the duration of the experiments. […] The tissues were weighed, and radioactivity in each tissue was measured on a gamma counter (CobraII Auto gamma; Packard). The radioactivity in the lung was reported as percent injected dose per gram corrected with the average sham weight, which was calculated by dividing the counts of ^64Cu per average sham tissue weight in gram by the total of counts of the injected dose. The radioactivity in every other tissue was reported as percent injected dose per gram (% ID/g), which was calculated by dividing the counts of ^64Cu per gram of tissue by the total of counts of the injected dose. […] Uncertainties are expressed as the standard error of the mean.

The nature of series [2]: in vivo. The arrangement: species or system mouse. Particulars: male, C57Bl/6, mouse, iv, total radioactivity, Biodistribution % ID/lung. As to the method:
as §1

Series [3] concerns pulmonary fibrosis, low dose bleomycin, vascular leak model. Particulars: male, C57Bl/6, mouse, in vivo, iv. As to the method: Adult male C57Bl/6 mice were administered a single intratracheal dose of low dose bleomycin at 0.1 U/kg (low dose), in a total volume of 50 μl sterile saline. FTY720 was administered intraperitoneally to the mice at 1 mg/kg three times a week. To effect treatment in the low dose bleomycin, vascular leak model, the therapeutic murine antibody 3G9 (alpha-v-beta6 blocking antibody) and 1E6 (matched isotype control antibody) were used. Antibodies were injected into mice intraperitoneally three times week at a concentration of 1 mg/kg. All administrations of FTY720 and antibodies were initiated on day 0, ˜30 minutes before bleomycin challenge and continued throughout the duration of the experiments. Animals were placed in a small-animal PET/SPECT/CT scanner (Triumph; TriFoil Imaging), equipped with inhalation anesthesia and heating pad. […] Instrument calibration was performed with phantoms containing small known amounts of radioactivity. […] Reconstructed PET/CT data were quantitatively evaluated using AMIDE software package (Loening and Gambhir, 2003). […] The radioactivity concentration within organs was obtained from mean pixel values within the VOI volume and converted to counts per milliliter per minute and then divided by the injected dose (ID) to obtain an imaging VOI-derived percentage of the injected radioactive dose per cubic centimeter of tissue (% ID/cc). […]

As to `CC(C)C[C@H](NC(=O)[C@@H]1CSSC[C@H](NC(=O)[C@H](Cc2c[nH]cn2)NC(=O)[C@H](Cc2c[nH]c3ccccc23)NC(=O)[C@H](CCCCNC(=O)CNC(=O)CCC(C(=O)O)N2CCN(CC(=O)O)CCN(CC(=O)O)CC2)NC(=O)CNC(=O)CCC(C(=O)O)N2CCN(CC(=O)O)CCN(CC(=O)O)CC2)C(=O)N[C@@H]([C@@H](C)O)C(=O)N[C@@H]([C@@H](C)O)C(=O)N[C@@H](CCCCNC(=O)CCC(C(=O)O)N2CCN(CC(=O)O)CCN(CC(=O)O)CC2)C(=O)N[C@@H](Cc2ccccc2)C(=O)N2CCC[C@H]2C(=O)N[C@@H](Cc2c[nH]cn2)C(=O)N[C@@H](Cc2c[nH]cn2)C(=O)N[C@@H](Cc2ccc(O)cc2)C(=O)N1)C(=O)N[C@@H](Cc1ccc(O)cc1)C(=O)N[C@@H](Cc1ccc(-c2ccccc2)cc1)C(N)=O` (single isomer, unassigned) [CBP8], the “organ uptake between groups, except lungs, in words” value in series [1] is recorded as “not significantly different”. Also, in series [2], the tissue uptake dose at 2.5 h is 0.043 ± 0.001 %ID. For the same molecule, the “mean lung PET activity” value in series [3] worked out at 2.07 ± 0.53 % ID/cc.
